{
  "source": "the DeepSol protein solubility set",
  "data": [
    {"experiment": "soluble on expression in E. coli; label from the status in PepcDB or PDB records", "values": [
      {"sequence": "MGHHHHHHGGHMSLTVPDFQAFMRPMLEQISSGEPQKIAELYRRLAEFFALTPQDTEELLPSGKQAKYHNRILWAKFHLDRAGVLTTPSRGVVQITPLGREFLSRYPEHIGMRELQTIPAYAEFTRRSRSPAQSPAPAAPPQAECSASVPPAEQIDALYAELTANLAEELLAQVKELSPAQFERLVVEVLVAMGYGGSVRDAGQALGRSGDNGIDGLIKQDPLGLDRIYLQAKRWKNTVHSPEIRTFSGSLTYHKATKGVFITTSGFSDGAKATAGQIGNIILLDGETLAHLMIEYGVGVLTRETYQIRRLDADYFEELEGGS", "soluble on expression in E. coli": "soluble"},
      {"sequence": "MGHHHHHHSHDGSLVHISISPYPAILHEYVSSSKWEDAVRLCRFVKEQTMWACLAAMAVANRDMTTAEIAYAAIGEIDKVQYINSIKNLPSKESKMAHILLFSGNIQEAEIVLLQAGLVYQAIQININLYNWERALELAVKYKTHVDTVLAYRQKFLETFGKQETNKRYLHYAEGLQIDWEKIKAKIEMEITKEREQSSSSQSSKSIGLKP", "soluble on expression in E. coli": "not soluble"},
      {"sequence": "MGHHHHHHSHFLSSSTYPEIHGFLHAKEQGKKSWKKIYFFLRRSGLYFSTKGTSKEPRHLQFFSEFGNSDIYVSLAGKKKHGAPTNYGFCFKPNKAGGPRDLKMLCAEEEQSRTCWVTAIRLLKYGMQLYQNYMHPYQGRSGCSSQSI", "soluble on expression in E. coli": "not soluble"},
      {"sequence": "MGHHHHHHSHGGCRELRSTKYISDGQCTSISPLKELVCAGECLLLPVLPNWIGGGYGTKYWSRRSSQEWRCVNDKTRTQRIQLQCQDGSTRTYKITVVTACKCKRYTRQHNESSHNFESMSPAKPVQHHRERKRASKSSKHSMS", "soluble on expression in E. coli": "not soluble"},
      {"sequence": "MGHHHHHHSHLEGPDCCFKSTVAAKLSKELKYPIIKGSSFELAKSGNEKLFEHFNKLADEDNVIIDRFVYSNLVYAKKFKDYSILTERQLRFIEDKIKAKAKVVYLHADPSVIKKRLRVRGDEYIEGKDIDSILELYREVMSNAGLHTYSWDTGQWSSDEIAKDI", "soluble on expression in E. coli": "not soluble"},
      {"sequence": "MGHHHHHHSHLPAIRTLQSLAFHPNVTFIIGENGTGKSTLLEGIAIALGFNAEGGTKNFRFSTNDSHSSLHEYLRISKSFNTPSDGFFLRAESFYNVASYIDEIDADLEARGNPVIDSYGGISLHEQSHGESFFSLFMNRFSGQGLYILDEPEAALSPMRQLSMLIRMHELAEQGSQFVIATHSPILMAYPESTIYSLTQEG", "soluble on expression in E. coli": "not soluble"},
      {"sequence": "MGHHHHHHSHMAAPEAEVLSSAAVPDLEWYEKSEETHASQIELLETSSTQEPLNASEAFCPRDCMVPVVFPGPVSQEGCCQFTCELLKHIMYQRQQLPLPYEQLKHFYRKPSPQAEEMLKKKPRATTEVSSRKCQQALAELESVLSHLEDFFARTLVPRVLILLGGNALSPKEFYELDLSLLAPYSVDQSLSTAACLRRLFRAIFMADAFSELQAPPLMGTVVMAQGHRNCGEDWFRPKLNYRVPSRGHKLTVTLSCGRPSIRTTAWEDYIWFQAPVTFKGFRE", "soluble on expression in E. coli": "not soluble"},
      {"sequence": "MGHHHHHHSHMAAPGLRLGAGRLFEMPAVLERLSRYNSTSQAFAEVLRLPKQQLRKLLYPLQEVERFLAPYGRQDLHLRIFDPSPEDIARADNIFTATERNRIDYVSSAVRIDHAPDLPRPELEENIFISG", "soluble on expression in E. coli": "not soluble"},
      {"sequence": "MGHHHHHHSHMAKTYDYLFKLLLIGDSGVGKTCVLFRFSEDAFNSTFISTIGIDFKIRTIELDGKRIKLQIWDTAGQERFRTITTAYYRGAMGIMLVYDITNEKSFDNIRNWIRNIEEHASADVEKMILGNKCDVNDKRQVSKERGEKLALDYGIKFMETSAKANINVENAFFTLARDIKAKMDKKLEGNSPQGSNQGVKITPDQQKRSSFFRCVLL", "soluble on expression in E. coli": "soluble"},
      {"sequence": "MGHHHHHHSHMANSAGSMANSAGSMHLVVESFPSYRDVTLFEGKRVSFYKRAQILVADTWSVLEGKGDGCFKDISSITMFADYRLPQVLAHLGALKYSDDLLKKLLKGEMLSYGDRQEVEIRGCSLWCVELIRDCLLELIEQKGEKPNGEINSILLDYYLWDYAHDHREDMKGIPFHRIRCIYY", "soluble on expression in E. coli": "not soluble"},
      {"sequence": "MGHHHHHHSHMAPPRIGTHNGTFHCDEALACALLRLLPEYRDAEIVRTRDPEKLASCDIVVDVGGEYDPRRHRYDHHQRSFTETMSSLSPGKPWQTKLSSAGLIYLHFGHKLLAQLLGTSEEDSMVGTLYDKAGFKRAMDLVQEEFLQRLDFYQHSWLPARALVEEALAQRFQVDPSGEIVELAKGACPWKEHLYHLESGLSPPVAIFFVIYTDQAGQWRIQCVPKEPHSFQSRLPLPEPWRGLRDEALDQVSGIPGCIFVHASGFIGGHRTREGALSMARATLAQRSYLPQIS", "soluble on expression in E. coli": "soluble"},
      {"sequence": "MGHHHHHHSHMDNCLAAAALNGVDRRSLQRSARLALEVLERAKRRAVDWHALERPKGCMGVLAREAPHLEKQPAAGPQRVLPGEREERPPTLSASFRTMAEFMDYTSSQCGKYYSSVPEEGGATHVYRYHRGESKLHMCLDIGNGQRKDRKKTSLGPGGSYQISEHAPEASQPAENISKDLYIEVYPGTYSVTVGSNDLTKKTHVVAVDSGQSVDLVFPV", "soluble on expression in E. coli": "not soluble"},
      {"sequence": "MGHHHHHHSHMDVVKEIMAAIKQYETIIIHRHQRPDPDAIGSQVGLAELLRASFPEKNIYQVGGPVEGLEFLAEMDVITDDVYRGALVIVTDTANAPRISDARFSLGDQLIKIDHHPNDEPYGDLVWVNTNASSCSEIIVDFWQQHLAELTMTDNAARLLYAGIVGDTGRFLYPSTSAHTLAVAAQLRTFNFNAADLNRELDQMPLKVAKLAGYIYQNLEIDANGAARVVLPQSILNSYDIVDSETAAIVSMPGKIEDVLSWAIFVEQPEGYYRVRLRSKGPIINTIAKKHHGGGHPLASGANARDAAEIEVIYQEIQAACQEWAQK", "soluble on expression in E. coli": "soluble"},
      {"sequence": "MGHHHHHHSHMEETRAGRYIVRAGSGGQTEDTASGAESVLATLAAVRTRRRSVVCDGPPGSPTDSARHMSDLASLALTAEFGLGCLEAYVRINAGQVLPVVWPPGWNLVLQEIETDEDFKPEDVKAWSHYLCCQTRLAFVGRFVNEGVLSPDQQKKTAVCLISDEGYVFCYVREDTAVYYLARNLMEFARVGLRAVETLHCMRYLTSSLVKRYFRPLLRAWSLGLDTMARFIIRHHGQFMPLTYPPGTELRLCNLRCFENSVEGGHLLRNIKTAFGMRVLGLGTVSLKGENAPFPHLRWPVDLIPIVVAYTGAVYACDVRDDRYIRVGDNLNTFMCLGLNLLFENRRFSGHNGIYDRVPDCPKGRQHR", "soluble on expression in E. coli": "not soluble"},
      {"sequence": "MGHHHHHHSHMEEVLEAAEKIRSMEVRGAARIARFAAETLMKFAEKASDEKFDEEMRFAAETLLNTRPTAVSLYNAINYVMRYSGESVEEKRQSVIRRAREFINWVETAQRKIGEIGEKRIKDGYTVMTHCNSSAALSVIKKAHENGKRVEVIATESRPRWQGHLTVKQLREAGIEVTLIVDSAVRYFINEVDCVVVGADTITANGALINKIGTSQIALAAKEARVPFMVAAETYKFSPKTLFGELVVIEERDAREVAPEEILKLGVKVRNPAFDVTPRDYIDVIITEIGAIPPEMAYIVITERLGYAGIEEEEITLNSRHFD", "soluble on expression in E. coli": "not soluble"},
      {"sequence": "MGHHHHHHSHMEFLTFLKSDYTHANLVDKALQLLKERILKGDTLAYFLRGQLYFEEGWYEEALEQFEEIKEKDHQATYQLGVMYYDGLGTTLDAEKGVDYMKKILDSPCPKARHLKFAAAYNLGRAYYEGKGVKRSNEEAERLWLIAADNGNPKASVKAQSMLGLYYSTKEPKELEKAFYWHSEACGNGNLESQGALGLMYLYGQGIRQDTEAALQCLREAAERGNVYAQGNLVEYYYKMKFFTKCVAFSKRIADYDEVHDIPMIAQVTDCLPEFIGRGMAMASFYHARCLQLGLGITRDETTAKHYYSKACRLNPALADELHSLLIRQRI", "soluble on expression in E. coli": "not soluble"},
      {"sequence": "MGHHHHHHSHMERIVMPANYVHTRTTPFWTKETAPASIWRRHLDAGTRQGVYPRLCVMQGTIRYYGYADETSPEPVETLTIEAGQFGVFPPEKWHRIEALSDDTLFNVDFYVDPKILIEG", "soluble on expression in E. coli": "soluble"},
      {"sequence": "MGHHHHHHSHMEWKVKVRSDGTRYVAKRPVRDRLLKARALKIREERSGMTTDDDAVSEMKMGRYWSKEERKQHLIRAREQRKRREFMMQSRLECLREQQNGDSKPELNIIALSHRKTMKKRNKKILDNWITIQEMLAHGARSADGKRVYNPLLSVTTV", "soluble on expression in E. coli": "not soluble"}
    ]}
  ]
}
